Assay results taken from a protein production outcome set (Wang et al. 2014).

Assay: label from the status in PepcDB records

Row | Sequence | protein production
1 | YLGPQGTFTHQAAVNAAQELARFEPQGFDLMPMDDVPQILDAAQHGDGWGIVAWENNVEGYVVPNLDALIDAKDLVGFARVGVNVEFDAYVAQGADPAEARIATAHPHGLAQCKRFIAEHRLSTQPATSNAAACRDLIPGEIAFGPAICGELYDITRIGTAIQDYQGAATDFLVLSPRAE | failed
2 | YLKLVRIYTKPKGQLPDYTSPVVLPYSRTTVEDFCMKIHKNLIKEFKYALVWGLSVKHNPQKVGKDHTLEDEDVIQIVKK | not failed
3 | YLSPMAHWLMPVAGGPNIEKMLNLLPALFSLYPEENNPQLLISKVYLPRQSQRYDPFYDLKNLAERWSEQLQRPIIPIPVCSTSIADALSDLAEMRECAAIVLGASREGLLKNVIHGNLPTQIASQTNTTVFIFRGPVDSPNEEAIVPPLAPDFGLDE | failed
4 | YNPWRNPEGALKRRNTVLNNMLVMGYLSQSQYDEEVARPLGVVSKPTLGPAKFPDFLDIVRRQLRAEYQESDLTNQGL | failed
5 | YRALFEHAIDGIFIMDAEGHYLDVNPAICSAIGYTRDEFLALDWGVLSRGVDSGWAAASLARIVGGEPLREERTVWTRNGDQLTVELSAHLLPDGKILGIARDVS | not failed
6 | YTCSFVGHFSAGKSTLINLLIEQDILPSSPVPTTSNTAIVSVSDNHDIIANLPNQTYAKLSNYDEVREMNRQNVDVESVEINFQSAKFENGFTLQDTPGVDSNVASHQSITEQYMYTSNMIFYTVDYNHVQSELNFKFMKHINDVGIPVVFIINQIDKHQDDELS | failed
7 | YTDESGLSELVNAAGEKLQDLELMGQKNAVRDFFKELIADSGKVAYGESQVRANLEINSVDVLLLSEDLRAERVTTKCSVCGYENKWTRRWKPGEPAPAAGNCPKCGSSLEVTDVTDIVDEFSELADKSNAKVVFVSTDFDEGSQLMNAFGGIAAILRYNTGV | not failed
8 | YTEQPIDLVPTQPLPNASFDNFKLTCSNTKFADDLNQMTGFTKPASRELSVTFFPDLNGDVVAIDYRHYSASFKKGAKLLHKPIVWHINQATTKTTFKPNTWCLRCLWSTKPVDT | not failed
9 | YTPMSDLGQQGLFDITRTLLQQPDLASLSEALSQLVKRSALADSAGIVLWQAQSQRAQYYATRENGRPVEYEDETVLAHGPVRRILSRPDALHCNFHEFTETWPQLAASGLYPEFGHCCLLPLAAEGRIFGGCEFIRQEDR | failed
10 | YVTSQIHAKGSDLAKLMQIAALKGNEEVLDVATGGGHVANAFAPFVKKVVAFDLTEDILKVARAFIEGNGHQQVEYVQGDAEQLPFTDERFHIVTCRIAAHHFPNPASFVSEAYRVLKKGGQLLLVDNSAPENDAFDVFYNYVEKERDYSHHRAWKKSDWLKMLEEAGFELEELHCFHKTFIFEDWCDRMNVTTEKKQELSDFIKSKPTEYYQKFKIVVEDGRVYSFRGESILMKARKPTVKNKGSS | not failed
